This experiment addresses HLA-A*02:01 (Homo sapiens, UniProt P04439, D140Y/D185E/D98H/E176V/E277Q/G131W/G231S/I119V/I121R/I166T/I218V/L300P/L318F/N151K/N90K/P208A/P217A/Q86G/Q94H/R138H/R169H/T345S). The experiment is described as follows: MHC binding assay (UV-ligand exchange, beta2m ELISA). As to conditions: binding of HLA-class I restricted peptides to HLA-A*02:01, β2m ELISA. A digest of the protocol: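 UV-exchange pMHC monomers, 100-fold diluted → streptavidin capture 1 h 37 °C → HRP anti-β2m 2 ug/ml 1 h 37 °C → TMB, A450. Yield from HLA-A*02:01/MLA-001 monomer standard curve, 15-500 ng/ml. Only stably bound peptides keep β2m-containing complexes intact.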
Background: In an ELISA, binding on a coated surface is turned into a signal by an enzyme label.
For “195 (YLGGFALSV; listed as Homo sapiens) [compound 195]”, the “Peptide Exchange (MHC class I binding score, peptide exchange yield)” value (shortened to “Peptide Exchange”) is given as ““++++” (≥75% = ++++)”.
Then “196 (YLLLQTYVL; listed as Homo sapiens) [compound 196]”, with ““+” (≥10% = +)”; and “198 (YLTFLPAEV; listed as Homo sapiens) [compound 198]”, with ““+++” (≥50 = +++)”; and “199 (YLVELSSLL; listed as Homo sapiens) [compound 199]”, with ““++++” (≥75% = ++++)”.
Regarding “203 (ALLSSQLAL; listed as Homo sapiens) [compound 203]”, the “Peptide Exchange” value was ““+++” (≥50 = +++)”.
For the substance “204 (GLLQINDKIAL; listed as Homo sapiens) [compound 204]”, the “Peptide Exchange” value is reported as ““+++” (≥50 = +++)”.
Consider “205 (GLSQANFTL; listed as Homo sapiens) [compound 205]”, for which the “Peptide Exchange” value is recorded as ““+++” (≥50 = +++)”.
Then “206 (HMQDVRVLL; listed as Homo sapiens) [compound 206]”, with ““+++” (≥50 = +++)”.
For “207 (IIADLDTTIMFA; listed as Homo sapiens) [compound 207]”, the “Peptide Exchange” value was ““+++” (≥50 = +++)”.
Turning to “208 (ILLKTEGINL; listed as Homo sapiens) [compound 208]”, the “Peptide Exchange” value is reported as ““+++” (≥50 = +++)”.
“209 (ILQAELPSL; listed as Homo sapiens) [compound 209]”: the “Peptide Exchange” value is given as ““+++” (≥50 = +++)”.
As to “210 (KLLVQDFFL; listed as Homo sapiens) [compound 210]”, the “Peptide Exchange” value is given as ““+++” (≥50 = +++)”.
With “211 (LIDVKPLGV; listed as Homo sapiens) [compound 211]” the entry was ““+++” (≥50 = +++)”; with “214 (RLQELTEKL; listed as Homo sapiens) [compound 214]”, ““+++” (≥50 = +++)”.
Take “215 (VMQDIVYKL; listed as Homo sapiens) [compound 215]”: the “Peptide Exchange” value is recorded as ““+++” (≥50 = +++)”.
Then “216 (WLAGDVPAA; listed as Homo sapiens) [compound 216]”, with ““+++” (≥50 = +++)”.
In the case of “217 (ALDEPPYLTV; listed as Homo sapiens) [compound 217]”, the “Peptide Exchange” value is recorded as ““+++” (≥50 = +++)”.
With “218 (ALGEEWKGYVV; listed as Homo sapiens) [compound 218]” the entry was ““++” (≥20% = ++)”; with “219 (ALLNLLESA; listed as Homo sapiens) [compound 219]”, ““+++” (≥50 = +++)”; with “221 (ALVSTIIMV; listed as Homo sapiens) [compound 221]”, ““+” (≥10% = +)”.
Consider “222 (ALWELSLKI; listed as Homo sapiens) [compound 222]”, for which the “Peptide Exchange” value is reported as ““+++” (≥50 = +++)”.
With “223 (ALWVSQPPEI; listed as Homo sapiens) [compound 223]” the entry was ““+++” (≥50 = +++)”; with “224 (AMEALVVEV; listed as Homo sapiens) [compound 224]”, ““+++” (≥50 = +++)”; with “225 (ILQERELLPV; listed as Homo sapiens) [compound 225]”, ““+++” (≥50 = +++)”.
With “226 (AMNISVPQV; listed as Homo sapiens) [compound 226]” the entry was ““+++” (≥50 = +++)”.

The values above are taken from patent US10064928B2, “Peptides and combination of peptides for use in immunotherapy against CLL and other cancers” (IMMATICS BIOTECHNOLOGIES GMBH, priority 2015, dated 2018).
